The results in this text go back to CN108239149A (NANJING LEGEND BIOTECHNOLOGY CO LTD, dated 2018).

Positions count from the first letter of the chain named.

For experiment [1], the target named is 人PD-L1 expressed on cells (表达PD-L1的CHO细胞) (human) (UniProt Q9NZQ7). In words: cell-based or functional assay.
In experiment [2] the target is T1, 融合至人IgG1 Fc段的人PD-L1胞外结构域的重组蛋白PD-L1-Fc (GenScript, Z03371) (human, UniProt Q9NZQ7 19-238, biotin-labelled in the PD-1 competition ELISA (site not stated)).
T1 construct: extracellular domain; Bought reagent (GenScript Z03371); also called 重组PD-L1-Fc; 生物素标记的PD-L1-Fc; not shown: Human IgG1 Fc segment
Nature of the experiment: indirect ELISA, PD-L1-Fc coated at 0.5 μg/ml, antibody titrated.

In experiment [3] the target is T1, 融合至人IgG1 Fc段的人PD-L1胞外结构域的重组蛋白PD-L1-Fc …. Nature of the experiment: competition ELISA: antibody titrated against biotinylated PD-L1-Fc binding to coated human PD-1.

T1 sequence (Q9NZQ7 19-238 limits assumed, one chain of several): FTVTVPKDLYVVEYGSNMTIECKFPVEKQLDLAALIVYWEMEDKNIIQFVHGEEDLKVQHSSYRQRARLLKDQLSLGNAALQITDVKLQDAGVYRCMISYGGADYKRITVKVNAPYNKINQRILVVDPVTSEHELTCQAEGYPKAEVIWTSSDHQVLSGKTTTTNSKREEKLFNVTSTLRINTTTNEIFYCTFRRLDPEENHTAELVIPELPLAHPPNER

B1: 29A8H8C7 (antibody, V domains shown)
VH: DVQLQGSGPGLVKPSQSLSLTCTVTGYSITSDFAWDWIRQFPGNKLEWMGHIRFSGTTSYNPSLKSRISITRDTSKNQFFLQLNSVTSEDTATYYCARSTLITKGFFDYWGQGTTLTVSS
VL: DIVMTQSHKFMSTSVGGRVSITCKASQDVSPAVAWYQQKPGQSPKLLIYWASTRHTGVPDRFTGSGSGTDFTLTISSVQTEDLALYYCQQHYSTPWTFGGGTKLEIK
notes: Mouse hybridoma clone; Made recombinantly as variable region + constant region in HEK293-6E
Take B1: in experiment [1], the IL-2分泌 (混合淋巴细胞反应) EC50 turned out to be 0.101 µg/mL and the 相对光单位(RLU) NFAT报告细胞 EC50 was 0.751 µg/mL. Also, the EC50 in experiment [2] was determined as 0.00498 µg/mL. Besides, the IC50 in experiment [3] is 0.39 µg/mL.

B2: 18B7F4G8 (antibody, V domains shown)
VH: DVQLQESGPDLVKPSQSLSLTCTVTGYSITSGYTWHWIRQFPGNKLEWMGYIHYSGSTKYNPSLKSRFSITRDTSKNQFFLQLNSMTAEDTATYYCARNSLFASWGHGTLVTVSA
VL: DIVLTQSPASLAVSLGQRATISCRASESVDTYGDSFMHWFQQKPGQPPKLLIYRASNLESGIPARFSGSGSRTDFTLTINPVEADDVATYYCQQSNEAPYTFGGGTKLEIK
notes: Mouse hybridoma clone; Detected with goat anti-mouse IgG
In experiment [1], B2 came in with an IL-2分泌 (混合淋巴细胞反应) EC50 of 0.359 µg/mL and a 相对光单位(RLU) NFAT报告细胞 EC50 of 0.359 µg/mL. In experiment [2], the half-maximal effective concentration (EC50) was found to be 0.00531 µg/mL.

B3: 53C1F3D4 (antibody, V domains shown)
VH: QVQLQQSGNELARPGASVRLSCKASGYIFTGYGITWVRQRPGQGLEWIGEIFPRRVNTYYSEKFKGRATLTADISSSTAYMELRSLTSEDSAVYFCARDYDPYFALDYWGQGTSVTVSS
VL: DIVMTQSHKFMSTSVGDRVSITCKASQDVSTAVDWYQQKPGQSPKLLIYSASYRYTGVPDRFTGSGSGTAFTFTISGEQAEDLAVYYCQQHYSIPFTFGGGTKLEIK
notes: as for B1
For the molecule B3, in experiment [1], the IL-2分泌 (混合淋巴细胞反应) EC50 stood at 0.0947 µg/mL and the 相对光单位(RLU) NFAT报告细胞 EC50 was determined as 0.576 µg/mL. The EC50 in experiment [2] was 0.00467 µg/mL. In experiment [3], this molecule had an IC50 of 0.32 µg/mL.

B4: 51F3D2G4 (antibody, V domains shown)
VH: QVQLQQSGAELARPGASVRLSCKASGYIFTGYGISWVKQRTGQGLEWIGEIFPRTANTYFNEKFKGKATLTADKSSSTAYMELRSLTSEDSAVYFCARDYDPYYALDYWGQGTSVTVSS
VL: B3 VL with S20T, G77S, I94V
notes: as for B1
In experiment [1], B4 gave an IL-2分泌 (混合淋巴细胞反应) EC50 of 0.209 µg/mL and a 相对光单位(RLU) NFAT报告细胞 EC50 of 0.883 µg/mL. The molecule further had an EC50 in experiment [2] of 0.0063 µg/mL. Besides, the IC50 in experiment [3] was 0.4 µg/mL.

B5: 42G2D7C3 (antibody, V domains shown)
VH: DVQLLESGPGLVKPSQSLSLTCSVTGYSITSGYYWNWIRQFPGNNLEWMGSINYDGSNDYNPSLQDRISITRDTSKNQFFLKLNSVTTEDTATYYCARRLDYWGQGTTLIVSS
VL: QIVLTQSPAIMSASPGEKVTISCSASSFINYMYWYQQKPGSSPKPWILRTSTLASGVPARFSGSGSGTSYSLTISSMEAEDAATYYCQQYHSYPLTFGAGTKLELK
notes: Made recombinantly as variable region + constant region; also called 42G2D7D3
Turning to B5, in experiment [1], the IL-2分泌 (混合淋巴细胞反应) EC50 was determined as 0.235 µg/mL and the 相对光单位(RLU) NFAT报告细胞 EC50 was found to be 1.17 µg/mL. In experiment [2], this molecule came in with an EC50 of 0.00458 µg/mL. In experiment [3], the IC50 was determined as 0.48 µg/mL.
